Assay results as given in patent US20220401557A1 (Chugai, published 2022).

Each binder was assayed against CD3 on NFAT-RE-luc2-Jurkat cells (human, UniProt P07766 23-207) (assay: cell-based or functional assay).
CD3 on NFAT-RE-luc2-Jurkat cells, sequence (P07766 23-207): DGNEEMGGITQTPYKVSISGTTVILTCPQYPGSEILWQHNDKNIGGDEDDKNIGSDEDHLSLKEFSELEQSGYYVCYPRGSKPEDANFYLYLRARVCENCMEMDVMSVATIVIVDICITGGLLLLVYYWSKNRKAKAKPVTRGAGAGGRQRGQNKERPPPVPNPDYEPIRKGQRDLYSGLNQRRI

Row | Binder | increase rate due to the protease treatment (luciferase, uPA-treated / untreated), antibody 0.1 nM [ratio] | increase rate due to the protease treatment (luciferase, uPA-treated / untreated), antibody 1 nM [ratio]
1 | hCE115HAGS/GLS//GCH065 (bispecific antibody, human IgG1, kappa, N297A) heavy 1: QDGNEGGGSGGGSQVQLVESGGGVVQPGRSLRLSCAASGFTFSNAWMHWVRQAPGKGLEWVAQIKAKSNNYATYYAESVKGRFTISRDDSKNSLYLQMNSLKTEDTAVYYCRYVHYGAYYGVDAWGQGTTVTVSSASTKGPSVFPLAPSSKSTSGGTAALGCLVKDYFPEPVTVSWNSGALTSGVHTFPAVLQSSGLYSLSSVVTVPSSSLGTQTYICNVNHKPSNTKVDKKVEPKSCDKTHTCPPCPAPELRGGPKVFLFPPKPKDTLMISRTPEVTCVVVDVSHEDPEVKFNWYVDGVEVHNAKTKPREEQYASTYRVVSVLTVLHQDWLNGKEYKCKVSNKALPAPIEKTISKAKGQPREPQVYTLPPSRKEMTKNQVSLTCLVKGFYPSDIAVEWESNGQPENNYKTTPPYLDSDGSFFLYSKLTVDKSRWQQGNVFSCSVMHEALHNHYTQKSLSLSP light 1: DIVMTQSPLSLPVTPGEPASISCRSSQSLVHSNRNTYLHWYQQKPGQAPRLLIYKVSNRFSGVPDRFSGSGSGTDFTLKISRVEAEDVGVYYCGQGTQVPYTFGQGTKLEIKRTVAAPSVFIFPPSDEQLKSGTASVVCLLNNFYPREAKVQWKVDNALQSGNSQESVTEQDSKDSTYSLSSTLTLSKADYEKHKVYACEVTHQGLSSPVTKSFNRGEC heavy 2: QVQLVQSGAEVKKPGASVTVSCKASGYTFTDYEMHWIRQPPGEGLEWIGAIDGPTPDTAYSEKFKGRVTLTADKSTSTAYMELSSLTSEDTAVYYCTRFYSYTYWGQGTLVTVSSASTKGPSVFPLAPSSKSTSGGTAALGCLVKDYFPEPVTVSWNSGALTSGVHTFPAVLQSSGLYSLSSVVTVPSSSLGTQTYICNVNHKPSNTKVDKKVEPKSCDKTHTCPPCPAPELRGGPKVFLFPPKPKDTLMISRTPEVTCVVVDVSHEDPEVKFNWYVDGVEVHNAKTKPREEQYASTYRVVSVLTVLHQDWLNGKEYKCKVSNKALPAPIEKTISKAKGQPREPQVYTLPPSREEMTKNQVSLTCLVKGFYPSDIAVEWESNGQPENNYKTTPPYLDSDGSFFLYSKLTVDKSRWQQGNVFSCSVMHEALHNHYTQESLSLSP light 2: DIVMTQSPLSLPVTPGEPASISCRSSQPLVHSNRNTYLHWYQQKPGQAPRLLIYKVSNRFSGVPDRFSGSGSGTDFTLKISRVEAEDVGVYYCGQGTQVPYTFGQGTKLEIKRTVAAPSVFIFPPSDEQLKSGTASVVCLLNNFYPREAKVQWKVDNALQSGNSQESVTEQDSKDSTYSLSSTLTLSKADYEKHKVYACEVTHQGLSSPVTKSFNRGEC | 1 | 1
2 | rCE115/GLSuPA04//GCH065 (bispecific antibody, human IgG1, kappa, N297A) heavy 1: EVQLVETGGSLVQPGKSLKLTCATSGFTFSNAWMHWVRQSPEKQLEWVAQIKAKSNNYATYYAESVKGRFTISRDDSKSNIYLQMNSLKEEDTAVYYCRYVHYGAYYGVDAWGQGTSVTVSSASTKGPSVFPLAPSSKSTSGGTAALGCLVKDYFPEPVTVSWNSGALTSGVHTFPAVLQSSGLYSLSSVVTVPSSSLGTQTYICNVNHKPSNTKVDKKVEPKSCDKTHTCPPCPAPELRGGPKVFLFPPKPKDTLMISRTPEVTCVVVDVSHEDPEVKFNWYVDGVEVHNAKTKPREEQYASTYRVVSVLTVLHQDWLNGKEYKCKVSNKALPAPIEKTISKAKGQPREPQVYTLPPSRKEMTKNQVSLTCLVKGFYPSDIAVEWESNGQPENNYKTTPPYLDSDGSFFLYSKLTVDKSRWQQGNVFSCSVMHEALHNHYTQKSLSLSP light 1: QDGNEEMGGGSGGGSGGGSLSGRSDNHGGGSDIVMTQSPLSLPVTPGEPASISCRSSQSLVHSNRNTYLHWYQQKPGQAPRLLIYKVSNRFSGVPDRFSGSGSGTDFTLKISRVEAEDVGVYYCGQGTQVPYTFGQGTKLEIKRTVAAPSVFIFPPSDEQLKSGTASVVCLLNNFYPREAKVQWKVDNALQSGNSQESVTEQDSKDSTYSLSSTLTLSKADYEKHKVYACEVTHQGLSSPVTKSFNRGEC heavy 2: QVQLVQSGAEVKKPGASVTVSCKASGYTFTDYEMHWIRQPPGEGLEWIGAIDGPTPDTAYSEKFKGRVTLTADKSTSTAYMELSSLTSEDTAVYYCTRFYSYTYWGQGTLVTVSSASTKGPSVFPLAPSSKSTSGGTAALGCLVKDYFPEPVTVSWNSGALTSGVHTFPAVLQSSGLYSLSSVVTVPSSSLGTQTYICNVNHKPSNTKVDKKVEPKSCDKTHTCPPCPAPELRGGPKVFLFPPKPKDTLMISRTPEVTCVVVDVSHEDPEVKFNWYVDGVEVHNAKTKPREEQYASTYRVVSVLTVLHQDWLNGKEYKCKVSNKALPAPIEKTISKAKGQPREPQVYTLPPSREEMTKNQVSLTCLVKGFYPSDIAVEWESNGQPENNYKTTPPYLDSDGSFFLYSKLTVDKSRWQQGNVFSCSVMHEALHNHYTQESLSLSP light 2: DIVMTQSPLSLPVTPGEPASISCRSSQPLVHSNRNTYLHWYQQKPGQAPRLLIYKVSNRFSGVPDRFSGSGSGTDFTLKISRVEAEDVGVYYCGQGTQVPYTFGQGTKLEIKRTVAAPSVFIFPPSDEQLKSGTASVVCLLNNFYPREAKVQWKVDNALQSGNSQESVTEQDSKDSTYSLSSTLTLSKADYEKHKVYACEVTHQGLSSPVTKSFNRGEC | 6.4 | 3.1
3 | rCE115/GLSGS//GCH065 (bispecific antibody, human IgG1, kappa, N297A) heavy 1: EVQLVETGGSLVQPGKSLKLTCATSGFTFSNAWMHWVRQSPEKQLEWVAQIKAKSNNYATYYAESVKGRFTISRDDSKSNIYLQMNSLKEEDTAVYYCRYVHYGAYYGVDAWGQGTSVTVSSASTKGPSVFPLAPSSKSTSGGTAALGCLVKDYFPEPVTVSWNSGALTSGVHTFPAVLQSSGLYSLSSVVTVPSSSLGTQTYICNVNHKPSNTKVDKKVEPKSCDKTHTCPPCPAPELRGGPKVFLFPPKPKDTLMISRTPEVTCVVVDVSHEDPEVKFNWYVDGVEVHNAKTKPREEQYASTYRVVSVLTVLHQDWLNGKEYKCKVSNKALPAPIEKTISKAKGQPREPQVYTLPPSRKEMTKNQVSLTCLVKGFYPSDIAVEWESNGQPENNYKTTPPYLDSDGSFFLYSKLTVDKSRWQQGNVFSCSVMHEALHNHYTQKSLSLSP light 1: QDGNEGGGSGGGSGGGSDIVMTQSPLSLPVTPGEPASISCRSSQSLVHSNRNTYLHWYQQKPGQAPRLLIYKVSNRFSGVPDRFSGSGSGTDFTLKISRVEAEDVGVYYCGQGTQVPYTFGQGTKLEIKRTVAAPSVFIFPPSDEQLKSGTASVVCLLNNFYPREAKVQWKVDNALQSGNSQESVTEQDSKDSTYSLSSTLTLSKADYEKHKVYACEVTHQGLSSPVTKSFNRGEC heavy 2: QVQLVQSGAEVKKPGASVTVSCKASGYTFTDYEMHWIRQPPGEGLEWIGAIDGPTPDTAYSEKFKGRVTLTADKSTSTAYMELSSLTSEDTAVYYCTRFYSYTYWGQGTLVTVSSASTKGPSVFPLAPSSKSTSGGTAALGCLVKDYFPEPVTVSWNSGALTSGVHTFPAVLQSSGLYSLSSVVTVPSSSLGTQTYICNVNHKPSNTKVDKKVEPKSCDKTHTCPPCPAPELRGGPKVFLFPPKPKDTLMISRTPEVTCVVVDVSHEDPEVKFNWYVDGVEVHNAKTKPREEQYASTYRVVSVLTVLHQDWLNGKEYKCKVSNKALPAPIEKTISKAKGQPREPQVYTLPPSREEMTKNQVSLTCLVKGFYPSDIAVEWESNGQPENNYKTTPPYLDSDGSFFLYSKLTVDKSRWQQGNVFSCSVMHEALHNHYTQESLSLSP light 2: DIVMTQSPLSLPVTPGEPASISCRSSQPLVHSNRNTYLHWYQQKPGQAPRLLIYKVSNRFSGVPDRFSGSGSGTDFTLKISRVEAEDVGVYYCGQGTQVPYTFGQGTKLEIKRTVAAPSVFIFPPSDEQLKSGTASVVCLLNNFYPREAKVQWKVDNALQSGNSQESVTEQDSKDSTYSLSSTLTLSKADYEKHKVYACEVTHQGLSSPVTKSFNRGEC | 1 | 0.7
4 | rCE115/GLS//GCH065 (bispecific antibody, human IgG1, kappa, N297A) heavy 1: EVQLVETGGSLVQPGKSLKLTCATSGFTFSNAWMHWVRQSPEKQLEWVAQIKAKSNNYATYYAESVKGRFTISRDDSKSNIYLQMNSLKEEDTAVYYCRYVHYGAYYGVDAWGQGTSVTVSSASTKGPSVFPLAPSSKSTSGGTAALGCLVKDYFPEPVTVSWNSGALTSGVHTFPAVLQSSGLYSLSSVVTVPSSSLGTQTYICNVNHKPSNTKVDKKVEPKSCDKTHTCPPCPAPELRGGPKVFLFPPKPKDTLMISRTPEVTCVVVDVSHEDPEVKFNWYVDGVEVHNAKTKPREEQYASTYRVVSVLTVLHQDWLNGKEYKCKVSNKALPAPIEKTISKAKGQPREPQVYTLPPSRKEMTKNQVSLTCLVKGFYPSDIAVEWESNGQPENNYKTTPPYLDSDGSFFLYSKLTVDKSRWQQGNVFSCSVMHEALHNHYTQKSLSLSP light 1: DIVMTQSPLSLPVTPGEPASISCRSSQSLVHSNRNTYLHWYQQKPGQAPRLLIYKVSNRFSGVPDRFSGSGSGTDFTLKISRVEAEDVGVYYCGQGTQVPYTFGQGTKLEIKRTVAAPSVFIFPPSDEQLKSGTASVVCLLNNFYPREAKVQWKVDNALQSGNSQESVTEQDSKDSTYSLSSTLTLSKADYEKHKVYACEVTHQGLSSPVTKSFNRGEC heavy 2: QVQLVQSGAEVKKPGASVTVSCKASGYTFTDYEMHWIRQPPGEGLEWIGAIDGPTPDTAYSEKFKGRVTLTADKSTSTAYMELSSLTSEDTAVYYCTRFYSYTYWGQGTLVTVSSASTKGPSVFPLAPSSKSTSGGTAALGCLVKDYFPEPVTVSWNSGALTSGVHTFPAVLQSSGLYSLSSVVTVPSSSLGTQTYICNVNHKPSNTKVDKKVEPKSCDKTHTCPPCPAPELRGGPKVFLFPPKPKDTLMISRTPEVTCVVVDVSHEDPEVKFNWYVDGVEVHNAKTKPREEQYASTYRVVSVLTVLHQDWLNGKEYKCKVSNKALPAPIEKTISKAKGQPREPQVYTLPPSREEMTKNQVSLTCLVKGFYPSDIAVEWESNGQPENNYKTTPPYLDSDGSFFLYSKLTVDKSRWQQGNVFSCSVMHEALHNHYTQESLSLSP light 2: DIVMTQSPLSLPVTPGEPASISCRSSQPLVHSNRNTYLHWYQQKPGQAPRLLIYKVSNRFSGVPDRFSGSGSGTDFTLKISRVEAEDVGVYYCGQGTQVPYTFGQGTKLEIKRTVAAPSVFIFPPSDEQLKSGTASVVCLLNNFYPREAKVQWKVDNALQSGNSQESVTEQDSKDSTYSLSSTLTLSKADYEKHKVYACEVTHQGLSSPVTKSFNRGEC | 0.7 | 0.9
